Data from US20040253673A1.

Legend:
[1] = molecular target: Crotalus durissus terrificus (C.d.t.) venom; assay: ELISA, C.d.t. venom coat, 1:5
[2] = molecular target: Crotalus durissus terrificus (C.d.t.) venom; assay: ELISA, C.d.t. venom coat, 1:25
[3] = molecular target: Crotalus durissus terrificus (C.d.t.) venom; assay: ELISA, C.d.t. venom coat, 1:25; remark: listed apart in the source
[4] = molecular target: Crotalus durissus terrificus (C.d.t.) venom; assay: ELISA, C.d.t. venom coat, 1:125
[5] = molecular target: Crotalus durissus terrificus (C.d.t.) venom; assay: ELISA, C.d.t. venom coat, 1:625
[6] = molecular target: Crotalus durissus terrificus (C.d.t.) venom; assay: ELISA, C.d.t. venom coat, 1:125; remark: listed apart in the source
[7] = molecular target: Crotalus durissus terrificus (C.d.t.) venom; assay: ELISA, C.d.t. venom coat, 1:625; remark: listed apart in the source
[8] = molecular target: Crotalus durissus terrificus (C.d.t.) venom; assay: ELISA, C.d.t. venom coat, 1:3125
[9] = molecular target: Crotalus durissus terrificus (C.d.t.) venom; assay: ELISA, C.d.t. venom coat, 1:3125; remark: listed apart in the source
[10] = molecular target: Crotalus durissus terrificus (C.d.t.) venom; assay: ELISA, C.d.t. venom coat, 1:62,500
[11] = molecular target: Crotalus durissus terrificus (C.d.t.) venom; assay: ELISA, C.d.t. venom coat, 1:312,500
[12] = molecular target: Crotalus durissus terrificus (C.d.t.) venom; assay: ELISA, C.d.t. venom coat, undiluted

Substance preimmune IgY (antibody) has an ELISA absorbance [1] of under 0 OD, an ELISA absorbance [2] of 0.016 OD and an ELISA absorbance [3] of 0 OD. The ELISA absorbance [4] was under 0 OD, the ELISA absorbance [5] was under 0 OD and the ELISA absorbance [6] was 0.003 OD. The ELISA absorbance [7] was 0 OD, the ELISA absorbance [8] was under 0 OD and the ELISA absorbance [9] was 0.002 OD. It also gave an ELISA absorbance [10] of 0.001 OD, an ELISA absorbance [11] of 0.01 OD and an ELISA absorbance [12] of 0.003 OD.
